What was measured:
human CD40 on cells [1] = target: T1, human CD40 on cells (human, UniProt P25942 21-277); experiment: flow cytometry, labelled CD40L on CD40-293T cells, antibody at 20 ug/ml
T1 construct: also called CD40 receptor on human B cells
Experimental: (§1) Percent ligand binding inhibition was calculated as [(CD40L binding gMFI in the absence of anti-CD40)−(CD40L binding gMFI in the presence of anti-CD40)]/(CD40L binding gMFI in the absence of anti-CD40). gMFI: geometric mean fluorescent intensity. All anti-CD40 antibodies show minimal effects on the ability of CD40L to bind to the CD40 receptor (Table 7).

human CD40 on cells [2] = target: T1, human CD40 on cells; experiment: flow cytometry, labelled CD40L on CD40-293T cells, antibody at 10 ug/ml
Experimental: as §1

cynomolgus monkey CD40 = target: T2, cynomolgus monkey CD40 (cynomolgus monkey, UniProt P25942 21-193 (human entry), limits assumed); experiment: Octet
T2 chain: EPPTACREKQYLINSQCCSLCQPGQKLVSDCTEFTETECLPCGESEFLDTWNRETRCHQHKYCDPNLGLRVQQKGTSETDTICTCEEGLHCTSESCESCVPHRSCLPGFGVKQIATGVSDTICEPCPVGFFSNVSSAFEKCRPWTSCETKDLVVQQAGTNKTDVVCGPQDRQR
Method in brief: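 Anti-human CD40 antibodies were tested by flow cytometry for binding to HEK293 cells transiently transfected with human TNFR1, TNFR2, TNFR10, TNFR14, or cynomolgus or mouse CD40. Affinity for human and cynomolgus CD40 was measured by Octet, giving Kon, Kdis and KD.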

human CD40 on cells [3] = target: T1, human CD40 on cells; experiment: flow cytometry, labelled CD40L on CD40-293T cells, antibody at 5 ug/ml
Experimental: as §1

mouse CD40 on cells = target: T3, mouse CD40 on cells (mouse, UniProt P27512 20-289); experiment: flow cytometry, HEK293 transfectants
T3 construct: whole, on cells; also called mouse CD40 on HEK293 cells; CD40 on mouse B cells
T3 sequence (looked up): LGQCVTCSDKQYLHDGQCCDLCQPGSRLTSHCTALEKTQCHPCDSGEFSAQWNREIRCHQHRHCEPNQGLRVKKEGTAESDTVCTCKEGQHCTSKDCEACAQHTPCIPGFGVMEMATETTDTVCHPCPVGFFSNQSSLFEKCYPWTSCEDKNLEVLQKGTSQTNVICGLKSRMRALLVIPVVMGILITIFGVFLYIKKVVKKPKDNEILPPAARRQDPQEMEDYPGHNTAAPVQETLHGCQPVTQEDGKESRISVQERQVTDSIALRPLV

human TNFR2 = target: T4, human TNFR2 (human, UniProt P20333 23-461); experiment: flow cytometry, HEK293 transfectants
T4 construct: whole, on cells
T4 sequence (looked up): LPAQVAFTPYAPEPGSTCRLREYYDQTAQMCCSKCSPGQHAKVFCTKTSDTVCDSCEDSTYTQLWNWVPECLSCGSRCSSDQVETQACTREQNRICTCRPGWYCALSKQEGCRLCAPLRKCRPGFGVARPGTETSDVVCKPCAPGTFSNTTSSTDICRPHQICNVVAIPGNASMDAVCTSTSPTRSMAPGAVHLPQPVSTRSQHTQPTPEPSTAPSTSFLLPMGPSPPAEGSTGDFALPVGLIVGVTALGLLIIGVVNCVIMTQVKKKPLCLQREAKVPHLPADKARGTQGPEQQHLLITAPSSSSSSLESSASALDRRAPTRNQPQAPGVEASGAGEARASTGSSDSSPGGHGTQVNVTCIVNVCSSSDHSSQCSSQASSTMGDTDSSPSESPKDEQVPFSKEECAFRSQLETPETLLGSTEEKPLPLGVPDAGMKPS
Experimental: (§2) The binding affinity of anti-human CD40 antibodies to human and cynomolgus monkey CD40 was measured by Octet assay (Table 3), quantifying association rate (Kon), disassociation rate (Kdis), and equilibrium binding constant (KD). Cross-reactivity of anti-CD40 antibodies to related TNF receptor superfamily (TNFRSF) members was evaluated by expressing human TNFR1, TNFR2, TNFR10, or TNFR14 on HEK293 cells by transient transfection of expression vectors encoding these genes. Binding of indicated anti-human CD40 antibody to these transfected cells was determined by flow cytometry. […] Cross-reactivity of anti-CD40 antibodies to cynomolgus monkey and mouse CD40 was evaluated by expressing cynomolgus monkey or mouse CD40 on HEK293 cells by transient transfection of expression vectors encoding these genes. Binding of indicated anti-human CD40 antibody to cells overexpressing cynomolgus monkey and mouse CD40 was determined by flow cytometry.

human TNFR14 = target: T5, human TNFR14 (human, UniProt Q92956 39-283); experiment: flow cytometry, HEK293 transfectants
T5 construct: whole, on cells
T5 sequence (looked up): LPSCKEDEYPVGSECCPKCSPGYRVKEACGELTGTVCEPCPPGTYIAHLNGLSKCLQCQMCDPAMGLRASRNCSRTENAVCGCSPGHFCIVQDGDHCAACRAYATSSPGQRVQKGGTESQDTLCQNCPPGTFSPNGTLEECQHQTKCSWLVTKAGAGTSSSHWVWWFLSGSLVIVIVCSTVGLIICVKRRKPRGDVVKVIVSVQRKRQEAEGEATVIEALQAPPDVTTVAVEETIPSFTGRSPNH
Experimental: as §2

human TNFR1 = target: T6, human TNFR1 (human, UniProt P19438 30-455); experiment: flow cytometry, HEK293 transfectants
T6 construct: whole, on cells
T6 sequence (looked up): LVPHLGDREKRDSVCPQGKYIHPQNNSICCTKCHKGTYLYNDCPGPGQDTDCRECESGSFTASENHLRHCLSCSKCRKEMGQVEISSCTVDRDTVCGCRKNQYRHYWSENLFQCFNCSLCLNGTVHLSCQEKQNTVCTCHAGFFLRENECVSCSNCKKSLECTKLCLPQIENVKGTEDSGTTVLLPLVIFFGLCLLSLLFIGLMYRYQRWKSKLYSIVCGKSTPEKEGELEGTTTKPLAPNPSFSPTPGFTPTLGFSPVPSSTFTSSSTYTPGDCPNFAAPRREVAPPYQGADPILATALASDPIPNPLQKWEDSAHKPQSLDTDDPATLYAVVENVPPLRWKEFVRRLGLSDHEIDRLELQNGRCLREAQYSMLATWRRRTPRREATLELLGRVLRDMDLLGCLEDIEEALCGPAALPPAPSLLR
Experimental: as §2

human CD40 on cells [4] = target: T1, human CD40 on cells; experiment: cell-based or functional assay

T1 sequence (P25942 21-277 limits assumed): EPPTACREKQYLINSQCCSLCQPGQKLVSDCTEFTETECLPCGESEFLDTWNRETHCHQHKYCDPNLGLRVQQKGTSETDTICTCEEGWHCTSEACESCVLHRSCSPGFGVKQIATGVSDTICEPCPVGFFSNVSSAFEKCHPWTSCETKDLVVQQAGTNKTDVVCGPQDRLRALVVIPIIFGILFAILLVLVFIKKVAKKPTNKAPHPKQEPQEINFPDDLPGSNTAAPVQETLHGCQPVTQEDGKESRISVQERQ

Binder | Ligand Binding Inhibition (%) (human CD40 on cells [1]) | Ligand Binding Inhibition (%) (human CD40 on cells [2]) | Kd (cynomolgus monkey CD40) [nM] | koff (cynomolgus monkey CD40) [s⁻¹] | kon (cynomolgus monkey CD40) [M⁻¹ s⁻¹] | Ligand Binding Inhibition (%) (human CD40 on cells [3]) | binding result (mouse CD40 on cells) | binding result (human TNFR2) | binding result (human TNFR14) | binding result (human TNFR1) | human B cell proliferation, no crosslinking, % Max Activity (human CD40 on cells [4]) [%] | human B cell proliferation, no crosslinking, EC50 (human CD40 on cells [4]) [nM] | human B cell proliferation, with protein G crosslinking, % Max Activity (human CD40 on cells [4]) [%] | human B cell proliferation, with protein G crosslinking, EC50 (human CD40 on cells [4]) [nM]
30A12 (antibody, IgG4, V domains shown, also called 4878-1) VH: EVQLLESGGGLVQPGGSLRLSCAASGFTFSRNAMSWVRQAPGKGLEWVSATGGSGISTYYADSVKGRFTISRDNSKNTLYLQMNSLRAEDTAVYYCARGYSNSWWYFDYWGQGTLVTVSS VL: QSALTQPASVSGSPGQSITISCTGTSSDVGNYNLVSWYQQHPGKAPKLMIFEVNQRPSGVSNRFSGSKSGTTASLTISGLQAADEADYFCCSYTTSSTYVIFGGGTKLTVLG | -3 | -8 | 0.56 | 0.000306 | 544000 | -15 | no binding | no binding | no binding | no binding | 8.6 | > 16.7 | 89.1 | 0.4
4G7 (antibody, IgG4, V domains shown, also called 4869-1) VH: QVQLVQSGAEVKKPGASVKVSCKASGYTFAGYYMHWVRQAPGQGLEWMGWINPDSGGTNFAQQFQGRVTMTRDTSISTAYMEVSRLRSDDTAVFYCAREKITMTGIYFDYWGQGTLVTVSS VL: DIQMTQSPSSLSASVGDILTITCRASQNITTYLNWYQQKPGKAPNLLISAASRLRSGVPSRFSGSGSGTDFTLTISSLQPVDFTTFYCQQTFTTPWTFGQGTKVEIKR | 3 | 14 | 1.72 | 0.00193 | 1.13e+06 | 24 | no binding | no binding | no binding | no binding | 6 | > 16.7 | 70.5 | 0.5

From patent publication US20260109776A1 (Amgen, published 2026)
